According to patent publication US20220332804A1 (CSL INNOVATION, published 2022):
Changes are numbered by the printed parent chain.

Columns and labels:
human complement C2 [1] = molecular target: T1, human complement C2 (human, UniProt P06681 21-752); assay: SPR, mAb captured, huC2 analyte, pH 7.3
T1 construct: Recombinant full-length human C2 with C-terminal 8x His tag, purified from Expi293F supernatant; also called human C2; huC2
T1 sequence: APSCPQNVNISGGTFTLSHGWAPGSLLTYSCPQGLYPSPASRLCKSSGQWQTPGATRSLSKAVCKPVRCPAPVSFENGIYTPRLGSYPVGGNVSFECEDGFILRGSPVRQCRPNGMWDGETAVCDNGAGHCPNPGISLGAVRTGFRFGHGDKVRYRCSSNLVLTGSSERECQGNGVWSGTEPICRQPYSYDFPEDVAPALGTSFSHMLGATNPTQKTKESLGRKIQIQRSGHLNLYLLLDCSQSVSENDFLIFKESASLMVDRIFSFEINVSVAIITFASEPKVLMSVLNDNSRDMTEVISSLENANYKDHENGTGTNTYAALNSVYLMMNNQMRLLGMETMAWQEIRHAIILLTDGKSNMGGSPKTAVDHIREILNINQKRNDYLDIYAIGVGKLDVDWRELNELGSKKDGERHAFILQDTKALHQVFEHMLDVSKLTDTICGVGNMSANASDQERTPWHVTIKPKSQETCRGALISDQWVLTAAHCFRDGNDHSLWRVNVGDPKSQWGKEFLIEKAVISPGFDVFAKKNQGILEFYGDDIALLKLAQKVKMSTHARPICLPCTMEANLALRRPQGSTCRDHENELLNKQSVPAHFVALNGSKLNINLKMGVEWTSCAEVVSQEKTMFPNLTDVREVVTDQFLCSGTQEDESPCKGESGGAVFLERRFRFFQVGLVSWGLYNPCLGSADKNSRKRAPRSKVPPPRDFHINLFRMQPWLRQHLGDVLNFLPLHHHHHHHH

human complement C2 [2] = molecular target: T1, human complement C2; assay: cell-based or functional assay
human complement C2 [3] = molecular target: T1, human complement C2; assay: SPR, mAb captured, huC2 analyte, neutral pH; pH 7
human C2 K676S = molecular target: T2, human C2 K676S (human, UniProt P06681 21-752); assay: SPR, antibody captured, C2 as analyte;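 also: biacore SPR at 37 °C, anti-C2 mAbs captured via goat anti-human IgG on CM5 chips, double-referenced sensorgrams fit to a 1:1 kinetic or steady-state model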
T2 sequence: T1 sequence with K656S

human C2 P650A = molecular target: T3, human C2 P650A (human, UniProt P06681 21-752); assay: SPR, antibody captured, C2 as analyte;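 also: biacore SPR at 37 °C, anti-C2 mAbs captured via goat anti-human IgG on CM5 chips, double-referenced sensorgrams fit to a 1:1 kinetic or steady-state model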
T3 sequence: T1 sequence with P630A

B1: RF16-226 (antibody)
heavy: not shown
light: SYELTQPPSVSVSPGQTARITCSGDALTSKYVAWYQQKSGLAPLLVIYEDTRRPSGIPAKFSGSSSGSVATLTISGAHGDDEADYYCYSTDASGHQRVFGGGTKLTVLSQPKAAPSVTLFPPSSEELQANKATLVCLISDFYPGAVTVAWKADGSPVKAGVETTKPSKQSNNKYAASSYLSLTPEQWKSHRSYSCQVTHEGSTVEKTVAPTECS
For B1, which Kd (human complement C2 [1]) is on record?
The Kd was about 10 nM.

What about the “log IC50 for inhibition of C1s-mediated cleavage of C2 (C2a band on SDS-PAGE, C1s titrated)” value (human complement C2 [2]) of the same binder?
Its value is 50.3 nM.

What about the Kd (human complement C2 [3]) of the same binder?
The Kd was about 9 nM.

B2: RF16-226 (antibody, human IgG4 S228P, lambda)
heavy: not shown
light: B1 light
notes: pH-dependent anti-C2 antibody from a phage display library; also called WT
For B2, which Kd (human C2 K676S) is on record?
Its Kd is 16.3 nM.

What about the Kd (human C2 P650A) of the same binder?
The Kd was 18.3 nM.
